Numbered stars: 1 amine (or outer) side, 2 acyl side, 3 side chain; on linkers, the order of the positions; unused ones are H or OH. Bridge positions count the residues as written; N and C are the ends. Square brackets hold non-standard residues; d marks the D form. Side chains are listed from the residue outwards. Ends that are not written are not given here. * marks the point of attachment. C18 diacid = O=C(O)CCCCCCCCCCCCCCCCC(=O)*; γGlu = O=C(O)[C@H](CCC(=O)[*:2])N[*:1]; AEEA = NCCOCCOCC(=O)O; Aib = CC(C)(N)C(=O)O
T1: human calcitonin receptor (human, UniProt P30988 25-474)
T1 sequence (looked up): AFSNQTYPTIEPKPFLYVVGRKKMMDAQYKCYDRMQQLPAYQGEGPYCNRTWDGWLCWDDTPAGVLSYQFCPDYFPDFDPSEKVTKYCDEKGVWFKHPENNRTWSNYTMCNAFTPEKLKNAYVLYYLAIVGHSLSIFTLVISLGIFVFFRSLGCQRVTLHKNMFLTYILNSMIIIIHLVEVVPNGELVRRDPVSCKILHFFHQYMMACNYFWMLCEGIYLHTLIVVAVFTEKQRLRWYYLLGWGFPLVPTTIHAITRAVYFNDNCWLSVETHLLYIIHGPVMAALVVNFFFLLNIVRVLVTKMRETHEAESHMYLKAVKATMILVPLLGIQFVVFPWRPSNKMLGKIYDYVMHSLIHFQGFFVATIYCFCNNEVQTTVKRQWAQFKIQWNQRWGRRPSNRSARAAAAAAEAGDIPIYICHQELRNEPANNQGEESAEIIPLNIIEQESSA

T2: human amylin receptor (calcitonin receptor co-expressed with receptor activity modifying protein, RAMP3) (human, UniProt P30988 25-474; O60896 24-148)
T2 sequence (looked up) 1: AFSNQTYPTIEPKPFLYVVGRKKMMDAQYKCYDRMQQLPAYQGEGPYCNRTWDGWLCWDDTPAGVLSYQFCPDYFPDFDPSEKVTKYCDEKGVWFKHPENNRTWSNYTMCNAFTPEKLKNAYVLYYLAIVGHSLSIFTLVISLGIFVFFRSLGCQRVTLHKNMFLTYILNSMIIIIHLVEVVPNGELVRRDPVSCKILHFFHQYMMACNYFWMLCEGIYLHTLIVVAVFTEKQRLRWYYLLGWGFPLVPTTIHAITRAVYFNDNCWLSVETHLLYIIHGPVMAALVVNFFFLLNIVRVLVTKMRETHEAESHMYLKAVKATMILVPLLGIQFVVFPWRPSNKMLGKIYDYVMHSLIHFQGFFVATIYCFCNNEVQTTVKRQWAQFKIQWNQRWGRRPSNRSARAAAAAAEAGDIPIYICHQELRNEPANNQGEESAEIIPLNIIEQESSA
T2 sequence (looked up) 2: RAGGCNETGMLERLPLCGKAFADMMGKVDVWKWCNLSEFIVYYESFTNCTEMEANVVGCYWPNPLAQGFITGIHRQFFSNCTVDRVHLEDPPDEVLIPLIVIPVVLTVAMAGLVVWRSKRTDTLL


Legend:
[1] = target: T1, human calcitonin receptor; assay: cell-based or functional assay
[2] = target: T2, human amylin receptor (calcitonin …); assay: cell-based or functional assay

| EC50 (cAMP production) [1] [pM] | EC50 (cAMP production) [2] [pM] | Ratio (EC50 hCTR / EC50 hAMYR3) [2] | Binder |
| --- | --- | --- | --- |
| 310 | 68 | 5 | K([AEEA-AEEA-γGlu-C18 diacid])CNTATCATQRLANFLVHSSNNFGPILPPTNVGSNTY-NH2 (disulfide 2-7) [Peptide 6 (SEQ ID NO: 6)] |
| 16900 | 588 | 29 | K([AEEA-AEEA-γGlu-C18 diacid])CNTATCATQRLANFLRHSS[Aib]NFGPILPPTEVGSNTY-NH2 (disulfide 2-7; N-terminus assumed; SMILES CC[C@H](C)[C@H](NC(=O)[C@@H]1CCCN1C(=O)CNC(=O)[C@H](Cc1ccccc1)NC(=O)[C@H](CC(N)=O)NC(=O)C(C)(C)NC(=O)[C@H](CO)NC(=O)[C@H](CO)NC(=O)[C@H](Cc1c[nH]cn1)NC(=O)[C@H](CCCNC(=N)N)NC(=O)[C@H](CC(C)C)NC(=O)[C@H](Cc1ccccc1)NC(=O)[C@H](CC(N)=O)NC(=O)[C@H](C)NC(=O)[C@H](CC(C)C)NC(=O)[C@H](CCCNC(=N)N)NC(=O)[C@H](CCC(N)=O)NC(=O)[C@@H](NC(=O)[C@H](C)NC(=O)[C@@H]1CSSC[C@H](NC(=O)[C@@H](N)CCCCNC(=O)COCCOCCNC(=O)COCCOCCNC(=O)CC[C@H](NC(=O)CCCCCCCCCCCCCCCCC(=O)O)C(=O)O)C(=O)N[C@@H](CC(N)=O)C(=O)N[C@@H]([C@@H](C)O)C(=O)N[C@@H](C)C(=O)N[C@@H]([C@@H](C)O)C(=O)N1)[C@@H](C)O)C(=O)N[C@@H](CC(C)C)C(=O)N1CCC[C@H]1C(=O)N1CCC[C@H]1C(=O)N[C@H](C(=O)N[C@@H](CCC(=O)O)C(=O)N[C@H](C(=O)NCC(=O)N[C@@H](CO)C(=O)N[C@@H](CC(N)=O)C(=O)N[C@H](C(=O)N[C@@H](Cc1ccc(O)cc1)C(N)=O)[C@@H](C)O)C(C)C)[C@@H](C)O) [Peptide 45 (SEQ ID NO: 45)] |
| 10400 | 1050 | 10 | K([γGlu-C18 diacid])KCNTATCATQRLANFLEHSS[Aib]NFGPILPPTNVGSNTY-NH2 (disulfide 3-8; N-terminus assumed; SMILES CC[C@H](C)[C@H](NC(=O)[C@@H]1CCCN1C(=O)CNC(=O)[C@H](Cc1ccccc1)NC(=O)[C@H](CC(N)=O)NC(=O)C(C)(C)NC(=O)[C@H](CO)NC(=O)[C@H](CO)NC(=O)[C@H](Cc1c[nH]cn1)NC(=O)[C@H](CCC(=O)O)NC(=O)[C@H](CC(C)C)NC(=O)[C@H](Cc1ccccc1)NC(=O)[C@H](CC(N)=O)NC(=O)[C@H](C)NC(=O)[C@H](CC(C)C)NC(=O)[C@H](CCCNC(=N)N)NC(=O)[C@H](CCC(N)=O)NC(=O)[C@@H](NC(=O)[C@H](C)NC(=O)[C@@H]1CSSC[C@H](NC(=O)[C@H](CCCCN)NC(=O)[C@@H](N)CCCCNC(=O)CC[C@H](NC(=O)CCCCCCCCCCCCCCCCC(=O)O)C(=O)O)C(=O)N[C@@H](CC(N)=O)C(=O)N[C@@H]([C@@H](C)O)C(=O)N[C@@H](C)C(=O)N[C@@H]([C@@H](C)O)C(=O)N1)[C@@H](C)O)C(=O)N[C@@H](CC(C)C)C(=O)N1CCC[C@H]1C(=O)N1CCC[C@H]1C(=O)N[C@H](C(=O)N[C@@H](CC(N)=O)C(=O)N[C@H](C(=O)NCC(=O)N[C@@H](CO)C(=O)N[C@@H](CC(N)=O)C(=O)N[C@H](C(=O)N[C@@H](Cc1ccc(O)cc1)C(N)=O)[C@@H](C)O)C(C)C)[C@@H](C)O) [Peptide 39 (SEQ ID NO: 39)] |
| 6390 | 331 | 19 | K([γGlu-C18 diacid])KCNTATCATQRLANFL[Aib]HSS[Aib]NFGPILPPTNVGSNTY-NH2 (disulfide 3-8; N-terminus assumed; SMILES CC[C@H](C)[C@H](NC(=O)[C@@H]1CCCN1C(=O)CNC(=O)[C@H](Cc1ccccc1)NC(=O)[C@H](CC(N)=O)NC(=O)C(C)(C)NC(=O)[C@H](CO)NC(=O)[C@H](CO)NC(=O)[C@H](Cc1c[nH]cn1)NC(=O)C(C)(C)NC(=O)[C@H](CC(C)C)NC(=O)[C@H](Cc1ccccc1)NC(=O)[C@H](CC(N)=O)NC(=O)[C@H](C)NC(=O)[C@H](CC(C)C)NC(=O)[C@H](CCCNC(=N)N)NC(=O)[C@H](CCC(N)=O)NC(=O)[C@@H](NC(=O)[C@H](C)NC(=O)[C@@H]1CSSC[C@H](NC(=O)[C@H](CCCCN)NC(=O)[C@@H](N)CCCCNC(=O)CC[C@H](NC(=O)CCCCCCCCCCCCCCCCC(=O)O)C(=O)O)C(=O)N[C@@H](CC(N)=O)C(=O)N[C@@H]([C@@H](C)O)C(=O)N[C@@H](C)C(=O)N[C@@H]([C@@H](C)O)C(=O)N1)[C@@H](C)O)C(=O)N[C@@H](CC(C)C)C(=O)N1CCC[C@H]1C(=O)N1CCC[C@H]1C(=O)N[C@H](C(=O)N[C@@H](CC(N)=O)C(=O)N[C@H](C(=O)NCC(=O)N[C@@H](CO)C(=O)N[C@@H](CC(N)=O)C(=O)N[C@H](C(=O)N[C@@H](Cc1ccc(O)cc1)C(N)=O)[C@@H](C)O)C(C)C)[C@@H](C)O) [Peptide 36 (SEQ ID NO: 36)] |
| 1960 | 249 | 8 | K([γGlu-C18 diacid])KCNTATCATQRLANFLSHSS[Aib]NFGPILPPTNVGSNTY-NH2 (disulfide 3-8; N-terminus assumed; SMILES CC[C@H](C)[C@H](NC(=O)[C@@H]1CCCN1C(=O)CNC(=O)[C@H](Cc1ccccc1)NC(=O)[C@H](CC(N)=O)NC(=O)C(C)(C)NC(=O)[C@H](CO)NC(=O)[C@H](CO)NC(=O)[C@H](Cc1c[nH]cn1)NC(=O)[C@H](CO)NC(=O)[C@H](CC(C)C)NC(=O)[C@H](Cc1ccccc1)NC(=O)[C@H](CC(N)=O)NC(=O)[C@H](C)NC(=O)[C@H](CC(C)C)NC(=O)[C@H](CCCNC(=N)N)NC(=O)[C@H](CCC(N)=O)NC(=O)[C@@H](NC(=O)[C@H](C)NC(=O)[C@@H]1CSSC[C@H](NC(=O)[C@H](CCCCN)NC(=O)[C@@H](N)CCCCNC(=O)CC[C@H](NC(=O)CCCCCCCCCCCCCCCCC(=O)O)C(=O)O)C(=O)N[C@@H](CC(N)=O)C(=O)N[C@@H]([C@@H](C)O)C(=O)N[C@@H](C)C(=O)N[C@@H]([C@@H](C)O)C(=O)N1)[C@@H](C)O)C(=O)N[C@@H](CC(C)C)C(=O)N1CCC[C@H]1C(=O)N1CCC[C@H]1C(=O)N[C@H](C(=O)N[C@@H](CC(N)=O)C(=O)N[C@H](C(=O)NCC(=O)N[C@@H](CO)C(=O)N[C@@H](CC(N)=O)C(=O)N[C@H](C(=O)N[C@@H](Cc1ccc(O)cc1)C(N)=O)[C@@H](C)O)C(C)C)[C@@H](C)O) [Peptide 37 (SEQ ID NO: 37)] |
| 3600 | 174 | 21 | K([γGlu-γGlu-C18 diacid])CNTATCATQRLANFLVHSSNNFGPILPPTNVGSNTY-NH2 (disulfide 2-7) [Peptide 5 (SEQ ID NO: 5)] |
| 2950 | 470 | 6 | K([γGlu-C18 diacid])KCNTATCATQRLANFLVHSS[Aib]NFGPILPPTNVGSETY-NH2 (disulfide 3-8; N-terminus assumed; SMILES CC[C@H](C)[C@H](NC(=O)[C@@H]1CCCN1C(=O)CNC(=O)[C@H](Cc1ccccc1)NC(=O)[C@H](CC(N)=O)NC(=O)C(C)(C)NC(=O)[C@H](CO)NC(=O)[C@H](CO)NC(=O)[C@H](Cc1c[nH]cn1)NC(=O)[C@@H](NC(=O)[C@H](CC(C)C)NC(=O)[C@H](Cc1ccccc1)NC(=O)[C@H](CC(N)=O)NC(=O)[C@H](C)NC(=O)[C@H](CC(C)C)NC(=O)[C@H](CCCNC(=N)N)NC(=O)[C@H](CCC(N)=O)NC(=O)[C@@H](NC(=O)[C@H](C)NC(=O)[C@@H]1CSSC[C@H](NC(=O)[C@H](CCCCN)NC(=O)[C@@H](N)CCCCNC(=O)CC[C@H](NC(=O)CCCCCCCCCCCCCCCCC(=O)O)C(=O)O)C(=O)N[C@@H](CC(N)=O)C(=O)N[C@@H]([C@@H](C)O)C(=O)N[C@@H](C)C(=O)N[C@@H]([C@@H](C)O)C(=O)N1)[C@@H](C)O)C(C)C)C(=O)N[C@@H](CC(C)C)C(=O)N1CCC[C@H]1C(=O)N1CCC[C@H]1C(=O)N[C@H](C(=O)N[C@@H](CC(N)=O)C(=O)N[C@H](C(=O)NCC(=O)N[C@@H](CO)C(=O)N[C@@H](CCC(=O)O)C(=O)N[C@H](C(=O)N[C@@H](Cc1ccc(O)cc1)C(N)=O)[C@@H](C)O)C(C)C)[C@@H](C)O) [Peptide 42 (SEQ ID NO: 42)] |
